Measurements from PMC8005835.

Target: Von Willebrand factor (VWF) (human) (UniProt P04275)
Assay: specific fVIII activity of the purified complex; heparin-Sepharose purified starting material, VWF 0.54 mg/ml and fVIII activity 38 U/ml (one-stage coagulation assay); mass ratio worked out with a cited specific activity of fVIII of ~5000 U/mg

**Q.** How did the percentage mass ratio of fVIII to VWF turn out when “blood coagulation factor VIII (fVIII) (natural protein)” was run?
**A.** The percentage mass ratio of fVIII to VWF was 1%.
